Conditions: Vigna radiata; pH 7; 37 °C; GdnHCl; Fluorescence; Tris-HCl 10 mM; NaCl 100 mM; whole UniProt chain shown

B1: wild type, Q6T418 (protein)
chain: MERKTFSFLFLLLLVLASDVAVERGEARTCMIKKEGWGKCLIDTTCAHSCKNRGYIGGNCKGMTRTCYCLVNC
  denaturant midpoint (higher = more stable): 4.17 M

Source: FireProtDB (doi:10.1002/pro.164)
